*1 amine or outer side, *2 acyl side, *3 side chain or, on linkers, in order; H or OH if unused. Side-chain parts run from the residue outwards. [ ]: non-standard residue; d: D form. The star is where a group is joined. γGlu = O=C(O)[C@H](CCC(=O)[*:2])N[*:1]; Desaminohistidyl = O=C(CCc1c[nH]cn1)*
B1: N^ε24-[(4S)-4-[[(4S)-4-[[(4S)-4-[[(4S)-4-acetamido-4-carboxybutanoyl]amino]-4-carboxybutanoyl]amino]-4-carboxybutanoyl]amino]-4-carboxybutanoyl]-[Imp1, His3, … (peptide)
peptide: [Desaminohistidyl]SHGTFTSDYSKYLDLRRAQEFVK([γGlu-γGlu-γGlu-γGlu-Ac])WLLST-OH
SMILES: CC(=O)N[C@@H](CCC(=O)N[C@@H](CCC(=O)N[C@@H](CCC(=O)N[C@@H](CCC(=O)NCCCC[C@H](NC(=O)[C@@H](NC(=O)[C@H](Cc1ccccc1)NC(=O)[C@H](CCC(=O)O)NC(=O)[C@H](CCC(N)=O)NC(=O)[C@H](C)NC(=O)[C@H](CCCNC(=N)N)NC(=O)[C@H](CCCNC(=N)N)NC(=O)[C@H](CC(C)C)NC(=O)[C@H](CC(=O)O)NC(=O)[C@H](CC(C)C)NC(=O)[C@H](Cc1ccc(O)cc1)NC(=O)[C@H](CCCCN)NC(=O)[C@H](CO)NC(=O)[C@H](Cc1ccc(O)cc1)NC(=O)[C@H](CC(=O)O)NC(=O)[C@H](CO)NC(=O)[C@@H](NC(=O)[C@H](Cc1ccccc1)NC(=O)[C@@H](NC(=O)CNC(=O)[C@H](Cc1c[nH]cn1)NC(=O)[C@H](CO)NC(=O)CCc1c[nH]cn1)[C@@H](C)O)[C@@H](C)O)C(C)C)C(=O)N[C@@H](Cc1c[nH]c2ccccc12)C(=O)N[C@@H](CC(C)C)C(=O)N[C@@H](CC(C)C)C(=O)N[C@@H](CO)C(=O)N[C@H](C(=O)O)[C@@H](C)O)C(=O)O)C(=O)O)C(=O)O)C(=O)O
notes: Imp written X under substitutions
B2: N^ε24-[(4S)-4-[[(4S)-4-[[(4S)-4-[[(4S)-4-acetamido-4-carboxybutanoyl]amino]-4-carboxybutanoyl]amino]-4-carboxybutanoyl]amino]-4-carboxybutanoyl]-[Imp1, His3, … (peptide)
peptide: [Desaminohistidyl]SHGTFTSDYSKYLDLRRAQDFVK([γGlu-γGlu-γGlu-γGlu-Ac])WLLST-OH
SMILES: CC(=O)N[C@@H](CCC(=O)N[C@@H](CCC(=O)N[C@@H](CCC(=O)N[C@@H](CCC(=O)NCCCC[C@H](NC(=O)[C@@H](NC(=O)[C@H](Cc1ccccc1)NC(=O)[C@H](CC(=O)O)NC(=O)[C@H](CCC(N)=O)NC(=O)[C@H](C)NC(=O)[C@H](CCCNC(=N)N)NC(=O)[C@H](CCCNC(=N)N)NC(=O)[C@H](CC(C)C)NC(=O)[C@H](CC(=O)O)NC(=O)[C@H](CC(C)C)NC(=O)[C@H](Cc1ccc(O)cc1)NC(=O)[C@H](CCCCN)NC(=O)[C@H](CO)NC(=O)[C@H](Cc1ccc(O)cc1)NC(=O)[C@H](CC(=O)O)NC(=O)[C@H](CO)NC(=O)[C@@H](NC(=O)[C@H](Cc1ccccc1)NC(=O)[C@@H](NC(=O)CNC(=O)[C@H](Cc1c[nH]cn1)NC(=O)[C@H](CO)NC(=O)CCc1c[nH]cn1)[C@@H](C)O)[C@@H](C)O)C(C)C)C(=O)N[C@@H](Cc1c[nH]c2ccccc12)C(=O)N[C@@H](CC(C)C)C(=O)N[C@@H](CC(C)C)C(=O)N[C@@H](CO)C(=O)N[C@H](C(=O)O)[C@@H](C)O)C(=O)O)C(=O)O)C(=O)O)C(=O)O
notes: as for B1
B3: N^ε28-[(4S)-4-[[(4S)-4-[[(4S)-4-[[(4S)-4-acetamido-4-carboxybutanoyl]amino]-4-carboxybutanoyl]amino]-4-carboxybutanoyl]amino]-4-carboxybutanoyl]-[Imp1, His3, … (peptide)
peptide: [Desaminohistidyl]SHGTFTSDYSKYLESRRAQEFVQWLLK([γGlu-γGlu-γGlu-γGlu-Ac])T-OH
SMILES: CC(=O)N[C@@H](CCC(=O)N[C@@H](CCC(=O)N[C@@H](CCC(=O)N[C@@H](CCC(=O)NCCCC[C@H](NC(=O)[C@H](CC(C)C)NC(=O)[C@H](CC(C)C)NC(=O)[C@H](Cc1c[nH]c2ccccc12)NC(=O)[C@H](CCC(N)=O)NC(=O)[C@@H](NC(=O)[C@H](Cc1ccccc1)NC(=O)[C@H](CCC(=O)O)NC(=O)[C@H](CCC(N)=O)NC(=O)[C@H](C)NC(=O)[C@H](CCCNC(=N)N)NC(=O)[C@H](CCCNC(=N)N)NC(=O)[C@H](CO)NC(=O)[C@H](CCC(=O)O)NC(=O)[C@H](CC(C)C)NC(=O)[C@H](Cc1ccc(O)cc1)NC(=O)[C@H](CCCCN)NC(=O)[C@H](CO)NC(=O)[C@H](Cc1ccc(O)cc1)NC(=O)[C@H](CC(=O)O)NC(=O)[C@H](CO)NC(=O)[C@@H](NC(=O)[C@H](Cc1ccccc1)NC(=O)[C@@H](NC(=O)CNC(=O)[C@H](Cc1c[nH]cn1)NC(=O)[C@H](CO)NC(=O)CCc1c[nH]cn1)[C@@H](C)O)[C@@H](C)O)C(C)C)C(=O)N[C@H](C(=O)O)[C@@H](C)O)C(=O)O)C(=O)O)C(=O)O)C(=O)O
notes: as for B1
B4: N^ε29-[(4S)-4-[[(4S)-4-[[(4S)-4-[[(4S)-4-acetamido-4-carboxybutanoyl]amino]-4-carboxybutanoyl]amino]-4-carboxybutanoyl]amino]-4-carboxybutanoyl]-[Imp1, His3, … (peptide)
peptide: [Desaminohistidyl]SHGTFTSDYSKYLESRRAQEFVQWLLSK([γGlu-γGlu-γGlu-γGlu-Ac])-OH
SMILES: CC(=O)N[C@@H](CCC(=O)N[C@@H](CCC(=O)N[C@@H](CCC(=O)N[C@@H](CCC(=O)NCCCC[C@H](NC(=O)[C@H](CO)NC(=O)[C@H](CC(C)C)NC(=O)[C@H](CC(C)C)NC(=O)[C@H](Cc1c[nH]c2ccccc12)NC(=O)[C@H](CCC(N)=O)NC(=O)[C@@H](NC(=O)[C@H](Cc1ccccc1)NC(=O)[C@H](CCC(=O)O)NC(=O)[C@H](CCC(N)=O)NC(=O)[C@H](C)NC(=O)[C@H](CCCNC(=N)N)NC(=O)[C@H](CCCNC(=N)N)NC(=O)[C@H](CO)NC(=O)[C@H](CCC(=O)O)NC(=O)[C@H](CC(C)C)NC(=O)[C@H](Cc1ccc(O)cc1)NC(=O)[C@H](CCCCN)NC(=O)[C@H](CO)NC(=O)[C@H](Cc1ccc(O)cc1)NC(=O)[C@H](CC(=O)O)NC(=O)[C@H](CO)NC(=O)[C@@H](NC(=O)[C@H](Cc1ccccc1)NC(=O)[C@@H](NC(=O)CNC(=O)[C@H](Cc1c[nH]cn1)NC(=O)[C@H](CO)NC(=O)CCc1c[nH]cn1)[C@@H](C)O)[C@@H](C)O)C(C)C)C(=O)O)C(=O)O)C(=O)O)C(=O)O)C(=O)O
notes: as for B1
B5: Nε^21-[(4S)-4-[[(4S)-4-[[(4S)-4-[[(4S)-4-acetamido-4-carboxybutanoyl]amino]-4-carboxybutanoyl]amino]-4-carboxybutanoyl]amino]-4-carboxybutanoyl]-[Imp1, His3, … (peptide)
peptide: [Desaminohistidyl]SHGTFTSDYSKYLESRRAQK([γGlu-γGlu-γGlu-γGlu-Ac])FVQWLLST-OH
SMILES: CC(=O)N[C@@H](CCC(=O)N[C@@H](CCC(=O)N[C@@H](CCC(=O)N[C@@H](CCC(=O)NCCCC[C@H](NC(=O)[C@H](CCC(N)=O)NC(=O)[C@H](C)NC(=O)[C@H](CCCNC(=N)N)NC(=O)[C@H](CCCNC(=N)N)NC(=O)[C@H](CO)NC(=O)[C@H](CCC(=O)O)NC(=O)[C@H](CC(C)C)NC(=O)[C@H](Cc1ccc(O)cc1)NC(=O)[C@H](CCCCN)NC(=O)[C@H](CO)NC(=O)[C@H](Cc1ccc(O)cc1)NC(=O)[C@H](CC(=O)O)NC(=O)[C@H](CO)NC(=O)[C@@H](NC(=O)[C@H](Cc1ccccc1)NC(=O)[C@@H](NC(=O)CNC(=O)[C@H](Cc1c[nH]cn1)NC(=O)[C@H](CO)NC(=O)CCc1c[nH]cn1)[C@@H](C)O)[C@@H](C)O)C(=O)N[C@@H](Cc1ccccc1)C(=O)N[C@H](C(=O)N[C@@H](CCC(N)=O)C(=O)N[C@@H](Cc1c[nH]c2ccccc12)C(=O)N[C@@H](CC(C)C)C(=O)N[C@@H](CC(C)C)C(=O)N[C@@H](CO)C(=O)N[C@H](C(=O)O)[C@@H](C)O)C(C)C)C(=O)O)C(=O)O)C(=O)O)C(=O)O
notes: as for B1
B6: N^α([Imp1, His3, Glu15, Glu21, Leu27, … (peptide)
peptide: [Desaminohistidyl]SHGTFTSDYSKYLESRRAQEFVQWLLSTK([γGlu-γGlu-γGlu-γGlu-Ac])-OH
SMILES: CC(=O)N[C@@H](CCC(=O)N[C@@H](CCC(=O)N[C@@H](CCC(=O)N[C@@H](CCC(=O)NCCCC[C@H](NC(=O)[C@@H](NC(=O)[C@H](CO)NC(=O)[C@H](CC(C)C)NC(=O)[C@H](CC(C)C)NC(=O)[C@H](Cc1c[nH]c2ccccc12)NC(=O)[C@H](CCC(N)=O)NC(=O)[C@@H](NC(=O)[C@H](Cc1ccccc1)NC(=O)[C@H](CCC(=O)O)NC(=O)[C@H](CCC(N)=O)NC(=O)[C@H](C)NC(=O)[C@H](CCCNC(=N)N)NC(=O)[C@H](CCCNC(=N)N)NC(=O)[C@H](CO)NC(=O)[C@H](CCC(=O)O)NC(=O)[C@H](CC(C)C)NC(=O)[C@H](Cc1ccc(O)cc1)NC(=O)[C@H](CCCCN)NC(=O)[C@H](CO)NC(=O)[C@H](Cc1ccc(O)cc1)NC(=O)[C@H](CC(=O)O)NC(=O)[C@H](CO)NC(=O)[C@@H](NC(=O)[C@H](Cc1ccccc1)NC(=O)[C@@H](NC(=O)CNC(=O)[C@H](Cc1c[nH]cn1)NC(=O)[C@H](CO)NC(=O)CCc1c[nH]cn1)[C@@H](C)O)[C@@H](C)O)C(C)C)[C@@H](C)O)C(=O)O)C(=O)O)C(=O)O)C(=O)O)C(=O)O
notes: as for B1
B7: N^ε24-[2-[[(4S)-4-[[(4S)-4-[[(4S)-4-[[(4S)-4-acetamido-4-carboxybutanoyl]amino]-4-carboxybutanoyl]amino]-4-carboxybutanoyl]amino]-4-carboxybutanoyl]amino]acetyl … (peptide)
peptide: [Desaminohistidyl]SHGTFTSDYSKYLESRRAQEFVK([Gly-γGlu-γGlu-γGlu-γGlu-Ac])WLLST-OH
SMILES: CC(=O)N[C@@H](CCC(=O)N[C@@H](CCC(=O)N[C@@H](CCC(=O)N[C@@H](CCC(=O)NCC(=O)NCCCC[C@H](NC(=O)[C@@H](NC(=O)[C@H](Cc1ccccc1)NC(=O)[C@H](CCC(=O)O)NC(=O)[C@H](CCC(N)=O)NC(=O)[C@H](C)NC(=O)[C@H](CCCNC(=N)N)NC(=O)[C@H](CCCNC(=N)N)NC(=O)[C@H](CO)NC(=O)[C@H](CCC(=O)O)NC(=O)[C@H](CC(C)C)NC(=O)[C@H](Cc1ccc(O)cc1)NC(=O)[C@H](CCCCN)NC(=O)[C@H](CO)NC(=O)[C@H](Cc1ccc(O)cc1)NC(=O)[C@H](CC(=O)O)NC(=O)[C@H](CO)NC(=O)[C@@H](NC(=O)[C@H](Cc1ccccc1)NC(=O)[C@@H](NC(=O)CNC(=O)[C@H](Cc1c[nH]cn1)NC(=O)[C@H](CO)NC(=O)CCc1c[nH]cn1)[C@@H](C)O)[C@@H](C)O)C(C)C)C(=O)N[C@@H](Cc1c[nH]c2ccccc12)C(=O)N[C@@H](CC(C)C)C(=O)N[C@@H](CC(C)C)C(=O)N[C@@H](CO)C(=O)N[C@H](C(=O)O)[C@@H](C)O)C(=O)O)C(=O)O)C(=O)O)C(=O)O
notes: as for B1

Each binder was assayed against T1, human glucagon receptor (human, UniProt P47871 26-477) (assay: displacement of 125I-glucagon from BHK membranes with human glucagon receptor (SPA), Assay (II)(b)).
T1 construct: whole, on cells; Potency assay (I)(b): whole BHK cells (clone pLJ6'-4-25) with CRE luciferase; also called hGlucagonR; hGCGR
T1 sequence (P47871 26-477): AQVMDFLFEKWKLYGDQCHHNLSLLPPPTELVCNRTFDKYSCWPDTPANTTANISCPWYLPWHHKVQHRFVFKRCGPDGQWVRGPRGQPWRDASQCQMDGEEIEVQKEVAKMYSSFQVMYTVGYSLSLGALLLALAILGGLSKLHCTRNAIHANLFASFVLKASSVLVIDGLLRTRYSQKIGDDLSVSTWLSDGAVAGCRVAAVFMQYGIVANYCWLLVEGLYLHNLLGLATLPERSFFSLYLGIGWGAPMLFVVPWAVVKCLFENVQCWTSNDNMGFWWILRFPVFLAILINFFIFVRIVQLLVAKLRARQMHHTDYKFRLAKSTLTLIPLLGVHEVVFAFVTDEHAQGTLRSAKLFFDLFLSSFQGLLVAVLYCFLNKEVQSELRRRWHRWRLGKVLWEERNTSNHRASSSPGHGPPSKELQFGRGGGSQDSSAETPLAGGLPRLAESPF

Binder | IC50 [nM]
B1 | 0.2
B2 | 0.5
B3 | 2.6
B4 | 5.1
B5 | 5.2
B6 | 2
B7 | 2.5

Each binder was assayed against T1, human glucagon receptor (assay: cell-based or functional assay).

Binder | EC50 hGlucagonR (pM), CRE luciferase reporter in BHK cells [pM]
B1 | 1
B2 | 3
B3 | 6
B4 | 4
B5 | 17
B6 | 4
B7 | 9.9

Source: patent publication US20170008943A1 (Novo Nordisk, published 2017)
